The values below come from patent publication US20160024194A1.

Assay [1] has as its target human fibronectin (purified; plasma fibronectin used in the ELISA assays; purified Fibronectin protein from BIOPUR AG in Biacore) (human) (UniProt P02751). In words: SPR, Biacore 3000, antibody captured on anti-mouse antibody on CM-5 chip, fibronectin in solution, 1:1 Langmuir fit, two experiments; lower end of the range from the two independent experiments; the text does not say which experiment.

Assay [2] has the same target. In words: Biacore 3000, 7A8 captured on anti-mouse antibody, fibronectin injected at 20 nM-100 nM, 1:1 Langmuir fit. On the technique in general: SPR reads the build-up and loss of mass on a sensor chip optically.
For assay [3] the target is unchanged. In words: SPR, Biacore 3000, antibody captured on anti-mouse antibody on CM-5 chip, fibronectin in solution, 1:1 Langmuir fit, two experiments; upper end of the range from the two independent experiments; the text does not say which experiment.
For assay [4] the target is unchanged. In words: Biacore 3000, 7A8 captured on anti-mouse antibody, fibronectin injected at 15 nM-500 nM, 1:1 Langmuir fit.

B1: 7A8 monoclonal antibody produced by hybridoma PTA-120971 (antibody, V domains shown)
VH: QVQLRESEPGLVAPSRSLSITCTVSGFSLTSYAVSWVRQPPGKGLEWLGVIWTGGGTNYNSALKSRLSISKDNSKNQVFLKMNSLQTDDTARYYCARYSNLYYAMDYWGQGTSVTVSS
VL: DIVMTQSQKFMSTSVGERVSITCKASQNVGTNVAWYQQKAGQSLELLIYGASNRHTGVPDRFTGSGSGTDFTLTITNVQSEDMTNYFCEQYRSYPLTFGGGSKLEIK
A word on the Kd: it is the concentration at which binding is half-saturated. As for B1, the Kd in assay [1] came to 2.8 nM; in assay [2] it was 7.26 nM; in assay [3] it was 7.26 nM; in assay [4], 2.8 nM.
